± gives the standard error. For some assays here: Fewer inactive variants are shown than the library holds.
B1: glmS ribozyme (parent)
chain: AUAAAAGCGCCAGAACUACAGAAAUGUAGUUGACGAGGAGGAGGUUUAUCGAAUUUUCGGCGGAUGCCUCCAAA

Tests used:
Conditions in all cases: with glucosamine-6-phosphate
[1] = variants of: B1; assay: kcat; higher = faster cleavage; RNA array
Summary of the method: (§1)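 The measurements used barcoded ribozyme variants on sequenced MiSeq chips, transcribed in situ by E. coli RNA polymerase and tracked at 37 °C with a hybridised Cy3 probe. Glucosamine-6-phosphate, 40 μM to 10 mM in HEPES/KCl/Mg(OAc)2 buffer, was flowed in while tiles were imaged over ~14 h. Baseline-normalised signals, also normalised to non-cleaving reference variants, gave per-tile medians that were fit to one- or two-exponential decays for kobs. kcat and KM resulted from weighted Michaelis–Menten fits across concentrations.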

[2] = variants of: B1; assay: KM; higher = weaker cofactor use; RNA array
Summary of the method: as §1

[3] = variants of: B1; assay: self-cleavage kobs at 640 uM GlcN6P; higher = faster cleavage; RNA array
Summary of the method: as §1

[4] = variants of: B1; assay: self-cleavage kobs at 2500 uM GlcN6P; higher = faster cleavage; RNA array
Summary of the method: as §1

[5] = variants of: B1; assay: self-cleavage kobs at 10000 uM GlcN6P; higher = faster cleavage; RNA array
Summary of the method: as §1

[6] = variants of: B1; assay: self-cleavage kobs at 160 uM GlcN6P; higher = faster cleavage; RNA array
Summary of the method: as §1

[7] = variants of: B1; assay: self-cleavage kobs at 40 uM GlcN6P; higher = faster cleavage; RNA array
Summary of the method: as §1

Variant: A6C C70U
- kcat [1]: 0.000107 ± 2.6e-06 s⁻¹
- KM [2]: 1350 ± 110 µM
- self-cleavage kobs at 640 uM GlcN6P [3]: 3.3e-05 ± 6.9e-06 s⁻¹
- self-cleavage kobs at 2500 uM GlcN6P [4]: 7.26e-05 ± 9.6e-06 s⁻¹
- self-cleavage kobs at 10000 uM GlcN6P [5]: 9.39e-05 ± 7.1e-06 s⁻¹

Variant: C11U G40C
- kcat [1]: 0.000197 ± 1.3e-05 s⁻¹
- KM [2]: 2960 ± 470 µM
- self-cleavage kobs at 640 uM GlcN6P [3]: 3.93e-05 ± 1.6e-05 s⁻¹
- self-cleavage kobs at 2500 uM GlcN6P [4]: 8.9e-05 ± 1.4e-05 s⁻¹
- self-cleavage kobs at 10000 uM GlcN6P [5]: 0.000153 ± 1.9e-05 s⁻¹

Variant: C11U A53U
- kcat [1]: 0.00137 ± 0.0004 s⁻¹
- self-cleavage kobs at 160 uM GlcN6P [6]: 0.000141 ± 3.8e-05 s⁻¹
- self-cleavage kobs at 2500 uM GlcN6P [4]: 0.000587 ± 0.00017 s⁻¹
- self-cleavage kobs at 10000 uM GlcN6P [5]: 0.00125 ± 0.00023 s⁻¹

Variant: G9U C61A
- kcat [1]: 0.00139 ± 0.00021 s⁻¹
- KM [2]: 1500 ± 360 µM
- self-cleavage kobs at 40 uM GlcN6P [7]: 4.72e-05 ± 9.6e-06 s⁻¹
- self-cleavage kobs at 160 uM GlcN6P [6]: 0.00013 ± 2.7e-05 s⁻¹
- self-cleavage kobs at 640 uM GlcN6P [3]: 0.000373 ± 5.1e-05 s⁻¹
- self-cleavage kobs at 2500 uM GlcN6P [4]: 0.000927 ± 0.00013 s⁻¹
- self-cleavage kobs at 10000 uM GlcN6P [5]: 0.00121 ± 0.00023 s⁻¹

Variant: A6U A14G
- kcat [1]: 0.000657 ± 7.8e-05 s⁻¹
- KM [2]: 2280 ± 480 µM
- self-cleavage kobs at 160 uM GlcN6P [6]: 4.93e-05 ± 2.3e-05 s⁻¹
- self-cleavage kobs at 640 uM GlcN6P [3]: 0.000135 ± 2.3e-05 s⁻¹
- self-cleavage kobs at 2500 uM GlcN6P [4]: 0.000414 ± 8.3e-05 s⁻¹
- self-cleavage kobs at 10000 uM GlcN6P [5]: 0.000513 ± 8.4e-05 s⁻¹

Variant: C10U A33U U54C
- kcat [1]: 4.81e-05 ± 4.1e-06 s⁻¹
- KM [2]: 3720 ± 750 µM
- self-cleavage kobs at 10000 uM GlcN6P [5]: 3.5e-05 ± 1.5e-05 s⁻¹

Variant: A12C U54G
- kcat [1]: 0.0218 ± 0.01 s⁻¹
- self-cleavage kobs at 40 uM GlcN6P [7]: 0.000492 ± 7.4e-05 s⁻¹
- self-cleavage kobs at 160 uM GlcN6P [6]: 0.0011 ± 0.00016 s⁻¹
- self-cleavage kobs at 640 uM GlcN6P [3]: 0.00452 ± 0.00083 s⁻¹
- self-cleavage kobs at 2500 uM GlcN6P [4]: 0.0102 ± 0.0016 s⁻¹
- self-cleavage kobs at 10000 uM GlcN6P [5]: 0.0271 ± 0.0095 s⁻¹

Variant: A6C C71U
- kcat [1]: 9.59e-05 ± 6.3e-06 s⁻¹
- KM [2]: 1150 ± 280 µM
- self-cleavage kobs at 640 uM GlcN6P [3]: 2.89e-05 ± 1.2e-05 s⁻¹
- self-cleavage kobs at 2500 uM GlcN6P [4]: 7.07e-05 ± 9.3e-06 s⁻¹
- self-cleavage kobs at 10000 uM GlcN6P [5]: 8.35e-05 ± 9.7e-06 s⁻¹

Variant: A12C U31A
- kcat [1]: 0.0133 ± 0.004 s⁻¹
- KM [2]: 4520 ± 1700 µM
- self-cleavage kobs at 40 uM GlcN6P [7]: 0.000142 ± 1.7e-05 s⁻¹
- self-cleavage kobs at 160 uM GlcN6P [6]: 0.000363 ± 7.2e-05 s⁻¹
- self-cleavage kobs at 640 uM GlcN6P [3]: 0.00151 ± 0.00035 s⁻¹
- self-cleavage kobs at 2500 uM GlcN6P [4]: 0.00434 ± 0.00085 s⁻¹
- self-cleavage kobs at 10000 uM GlcN6P [5]: 0.00974 ± 0.0017 s⁻¹

Variant: C8U C50G
- kcat [1]: 0.000208 ± 1.2e-05 s⁻¹
- KM [2]: 31 ± 8 µM
- self-cleavage kobs at 40 uM GlcN6P [7]: 0.00012 ± 2e-05 s⁻¹
- self-cleavage kobs at 160 uM GlcN6P [6]: 0.000167 ± 2.4e-05 s⁻¹
- self-cleavage kobs at 640 uM GlcN6P [3]: 0.000188 ± 3.3e-05 s⁻¹
- self-cleavage kobs at 2500 uM GlcN6P [4]: 0.000229 ± 3.5e-05 s⁻¹
- self-cleavage kobs at 10000 uM GlcN6P [5]: 0.000178 ± 7.7e-05 s⁻¹

Variant: G7A U45A
- kcat [1]: 3.18e-05 ± 3.1e-06 s⁻¹
- self-cleavage kobs at 10000 uM GlcN6P [5]: 2.85e-05 ± 1.2e-05 s⁻¹

Variant: C10U A15G C68U
- kcat [1]: 1.81e-05 ± 6.2e-06 s⁻¹

Variant: A6U G43U
- kcat [1]: < 1e-05 s⁻¹
- KM [2]: 6890 ± 1100 µM
- self-cleavage kobs at 40 uM GlcN6P [7]: < 1e-05 s⁻¹
- self-cleavage kobs at 160 uM GlcN6P [6]: < 1e-05 s⁻¹
- self-cleavage kobs at 640 uM GlcN6P [3]: < 1e-05 s⁻¹

Variant: A12G C68A
- kcat [1]: 2.58e-05 ± 7.3e-06 s⁻¹
- self-cleavage kobs at 2500 uM GlcN6P [4]: 3.36e-05 ± 9e-06 s⁻¹
- self-cleavage kobs at 10000 uM GlcN6P [5]: 1.95e-05 ± 7.6e-06 s⁻¹

Variant: A12G C68G
- kcat [1]: 3.14e-05 ± 6.3e-06 s⁻¹
- self-cleavage kobs at 2500 uM GlcN6P [4]: 4.35e-05 ± 1.8e-05 s⁻¹

Variant: C8U G38A
- kcat [1]: < 1e-05 s⁻¹
- KM [2]: 371 ± 120 µM
- self-cleavage kobs at 40 uM GlcN6P [7]: < 1e-05 s⁻¹

Reference: the supplement of paper PMC7125110
